{
  "source": "patent US20220298218A1",
  "about": "(ANTAG THERAPEUTICS, published 2022)",
  "note": "*1 amine or outer side, *2 acyl side, *3 side chain or, on linkers, in order; H or OH if unused. Where no end group is shown, it is not given here. Side-chain parts run from the residue outwards. The star is where a group is joined. C18 diacid = O=C(O)CCCCCCCCCCCCCCCCC(=O)*; γGlu = O=C(O)[C@H](CCC(=O)[*:2])N[*:1]; AEEA = NCCOCCOCC(=O)O",
  "data": [
    {"biological_target": "T1, human GIP receptor (human, UniProt P48546 22-466)", "T1 sequence (looked up)": "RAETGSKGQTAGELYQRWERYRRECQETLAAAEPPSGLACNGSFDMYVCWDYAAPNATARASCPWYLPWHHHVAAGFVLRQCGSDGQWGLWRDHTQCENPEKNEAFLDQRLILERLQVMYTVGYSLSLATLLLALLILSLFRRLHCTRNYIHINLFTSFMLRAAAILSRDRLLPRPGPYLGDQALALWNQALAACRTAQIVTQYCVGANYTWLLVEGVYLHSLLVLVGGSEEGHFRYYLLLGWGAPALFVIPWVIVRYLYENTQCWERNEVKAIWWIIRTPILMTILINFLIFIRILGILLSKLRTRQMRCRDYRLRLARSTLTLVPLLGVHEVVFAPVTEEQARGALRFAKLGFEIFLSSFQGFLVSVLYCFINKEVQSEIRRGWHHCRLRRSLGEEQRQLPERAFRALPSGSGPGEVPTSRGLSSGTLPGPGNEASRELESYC", "experiment": "cell-based or functional assay", "units": {"cAMP agonism % Emax": "%", "cAMP antagonism": "nM", "cAMP antagonism % inhib": "%"}, "values": [
      {"binder": "EGTFISDYSIAMDKIK([AEEA-AEEA-γGlu-C18 diacid])QQDFVNWLLAQKPSSGAPPPS-NH2 (N-terminus assumed; SMILES CC[C@H](C)[C@H](NC(=O)[C@H](CO)NC(=O)[C@H](Cc1ccc(O)cc1)NC(=O)[C@H](CC(=O)O)NC(=O)[C@H](CO)NC(=O)[C@@H](NC(=O)[C@H](Cc1ccccc1)NC(=O)[C@@H](NC(=O)CNC(=O)[C@@H](N)CCC(=O)O)[C@@H](C)O)[C@@H](C)CC)C(=O)N[C@@H](C)C(=O)N[C@@H](CCSC)C(=O)N[C@@H](CC(=O)O)C(=O)N[C@@H](CCCCN)C(=O)N[C@H](C(=O)N[C@@H](CCCCNC(=O)COCCOCCNC(=O)COCCOCCNC(=O)CC[C@H](NC(=O)CCCCCCCCCCCCCCCCC(=O)O)C(=O)O)C(=O)N[C@@H](CCC(N)=O)C(=O)N[C@@H](CCC(N)=O)C(=O)N[C@@H](CC(=O)O)C(=O)N[C@@H](Cc1ccccc1)C(=O)N[C@H](C(=O)N[C@@H](CC(N)=O)C(=O)N[C@@H](Cc1c[nH]c2ccccc12)C(=O)N[C@@H](CC(C)C)C(=O)N[C@@H](CC(C)C)C(=O)N[C@@H](C)C(=O)N[C@@H](CCC(N)=O)C(=O)N[C@@H](CCCCN)C(=O)N1CCC[C@H]1C(=O)N[C@@H](CO)C(=O)N[C@@H](CO)C(=O)NCC(=O)N[C@@H](C)C(=O)N1CCC[C@H]1C(=O)N1CCC[C@H]1C(=O)N1CCC[C@H]1C(=O)N[C@@H](CO)C(N)=O)C(C)C)[C@@H](C)CC)", "note": "[AT587]", "cAMP agonism % Emax": 0, "cAMP antagonism": 3.98, "cAMP antagonism % inhib": 90, "cAMP antagonism pIC50": 8.4},
      {"binder": "TFISDYSK([AEEA-AEEA-γGlu-C18 diacid])AMDKIHQQDFVNWLLAQKGKKNDW-OH (N-terminus assumed; SMILES CC[C@H](C)[C@H](NC(=O)[C@H](CCCCN)NC(=O)[C@H](CC(=O)O)NC(=O)[C@H](CCSC)NC(=O)[C@H](C)NC(=O)[C@H](CCCCNC(=O)COCCOCCNC(=O)COCCOCCNC(=O)CC[C@H](NC(=O)CCCCCCCCCCCCCCCCC(=O)O)C(=O)O)NC(=O)[C@H](CO)NC(=O)[C@H](Cc1ccc(O)cc1)NC(=O)[C@H](CC(=O)O)NC(=O)[C@H](CO)NC(=O)[C@@H](NC(=O)[C@H](Cc1ccccc1)NC(=O)[C@@H](N)[C@@H](C)O)[C@@H](C)CC)C(=O)N[C@@H](Cc1c[nH]cn1)C(=O)N[C@@H](CCC(N)=O)C(=O)N[C@@H](CCC(N)=O)C(=O)N[C@@H](CC(=O)O)C(=O)N[C@@H](Cc1ccccc1)C(=O)N[C@H](C(=O)N[C@@H](CC(N)=O)C(=O)N[C@@H](Cc1c[nH]c2ccccc12)C(=O)N[C@@H](CC(C)C)C(=O)N[C@@H](CC(C)C)C(=O)N[C@@H](C)C(=O)N[C@@H](CCC(N)=O)C(=O)N[C@@H](CCCCN)C(=O)NCC(=O)N[C@@H](CCCCN)C(=O)N[C@@H](CCCCN)C(=O)N[C@@H](CC(N)=O)C(=O)N[C@@H](CC(=O)O)C(=O)N[C@@H](Cc1c[nH]c2ccccc12)C(=O)O)C(C)C)", "note": "[AT562]", "cAMP agonism % Emax": 0, "cAMP antagonism": 3.98, "cAMP antagonism % inhib": 82, "cAMP antagonism pIC50": 8.4},
      {"binder": "EGTFISDYSIAMDKIK([AEEA-AEEA-γGlu-C18 diacid])QQDFVNWLLAQKGPSSGAPPPS", "note": "[AT589]", "cAMP agonism % Emax": 0, "cAMP antagonism": 5.84, "cAMP antagonism % inhib": 95, "cAMP antagonism pIC50": 8.2},
      {"binder": "TFISDYSIAMDKIK([AEEA-AEEA-γGlu-C18 diacid])QQDFVNWLLAQKGKKNDW-OH (N-terminus assumed; SMILES CC[C@H](C)[C@H](NC(=O)[C@H](CO)NC(=O)[C@H](Cc1ccc(O)cc1)NC(=O)[C@H](CC(=O)O)NC(=O)[C@H](CO)NC(=O)[C@@H](NC(=O)[C@H](Cc1ccccc1)NC(=O)[C@@H](N)[C@@H](C)O)[C@@H](C)CC)C(=O)N[C@@H](C)C(=O)N[C@@H](CCSC)C(=O)N[C@@H](CC(=O)O)C(=O)N[C@@H](CCCCN)C(=O)N[C@H](C(=O)N[C@@H](CCCCNC(=O)COCCOCCNC(=O)COCCOCCNC(=O)CC[C@H](NC(=O)CCCCCCCCCCCCCCCCC(=O)O)C(=O)O)C(=O)N[C@@H](CCC(N)=O)C(=O)N[C@@H](CCC(N)=O)C(=O)N[C@@H](CC(=O)O)C(=O)N[C@@H](Cc1ccccc1)C(=O)N[C@H](C(=O)N[C@@H](CC(N)=O)C(=O)N[C@@H](Cc1c[nH]c2ccccc12)C(=O)N[C@@H](CC(C)C)C(=O)N[C@@H](CC(C)C)C(=O)N[C@@H](C)C(=O)N[C@@H](CCC(N)=O)C(=O)N[C@@H](CCCCN)C(=O)NCC(=O)N[C@@H](CCCCN)C(=O)N[C@@H](CCCCN)C(=O)N[C@@H](CC(N)=O)C(=O)N[C@@H](CC(=O)O)C(=O)N[C@@H](Cc1c[nH]c2ccccc12)C(=O)O)C(C)C)[C@@H](C)CC)", "note": "[AT563]", "cAMP agonism % Emax": 0, "cAMP antagonism": 4.64, "cAMP antagonism % inhib": 80, "cAMP antagonism pIC50": 8.3},
      {"binder": "EGTFISDYSIAMDKIK([AEEA-AEEA-γGlu-C18 diacid])QQDFVNWLLAQKGPSSGAPPPS-NH2 (N-terminus assumed; SMILES CC[C@H](C)[C@H](NC(=O)[C@H](CO)NC(=O)[C@H](Cc1ccc(O)cc1)NC(=O)[C@H](CC(=O)O)NC(=O)[C@H](CO)NC(=O)[C@@H](NC(=O)[C@H](Cc1ccccc1)NC(=O)[C@@H](NC(=O)CNC(=O)[C@@H](N)CCC(=O)O)[C@@H](C)O)[C@@H](C)CC)C(=O)N[C@@H](C)C(=O)N[C@@H](CCSC)C(=O)N[C@@H](CC(=O)O)C(=O)N[C@@H](CCCCN)C(=O)N[C@H](C(=O)N[C@@H](CCCCNC(=O)COCCOCCNC(=O)COCCOCCNC(=O)CC[C@H](NC(=O)CCCCCCCCCCCCCCCCC(=O)O)C(=O)O)C(=O)N[C@@H](CCC(N)=O)C(=O)N[C@@H](CCC(N)=O)C(=O)N[C@@H](CC(=O)O)C(=O)N[C@@H](Cc1ccccc1)C(=O)N[C@H](C(=O)N[C@@H](CC(N)=O)C(=O)N[C@@H](Cc1c[nH]c2ccccc12)C(=O)N[C@@H](CC(C)C)C(=O)N[C@@H](CC(C)C)C(=O)N[C@@H](C)C(=O)N[C@@H](CCC(N)=O)C(=O)N[C@@H](CCCCN)C(=O)NCC(=O)N1CCC[C@H]1C(=O)N[C@@H](CO)C(=O)N[C@@H](CO)C(=O)NCC(=O)N[C@@H](C)C(=O)N1CCC[C@H]1C(=O)N1CCC[C@H]1C(=O)N1CCC[C@H]1C(=O)N[C@@H](CO)C(N)=O)C(C)C)[C@@H](C)CC)", "note": "[AT588]", "cAMP agonism % Emax": 0, "cAMP antagonism": 23.3, "cAMP antagonism % inhib": 97, "cAMP antagonism pIC50": 7.6},
      {"binder": "EGTFISDYSIAMDKK([AEEA-AEEA-γGlu-C18 diacid])HQQDFVNWLLAQKPSSGAPPPS-NH2 (N-terminus assumed; SMILES CC[C@H](C)[C@H](NC(=O)[C@H](CO)NC(=O)[C@H](Cc1ccc(O)cc1)NC(=O)[C@H](CC(=O)O)NC(=O)[C@H](CO)NC(=O)[C@@H](NC(=O)[C@H](Cc1ccccc1)NC(=O)[C@@H](NC(=O)CNC(=O)[C@@H](N)CCC(=O)O)[C@@H](C)O)[C@@H](C)CC)C(=O)N[C@@H](C)C(=O)N[C@@H](CCSC)C(=O)N[C@@H](CC(=O)O)C(=O)N[C@@H](CCCCN)C(=O)N[C@@H](CCCCNC(=O)COCCOCCNC(=O)COCCOCCNC(=O)CC[C@H](NC(=O)CCCCCCCCCCCCCCCCC(=O)O)C(=O)O)C(=O)N[C@@H](Cc1c[nH]cn1)C(=O)N[C@@H](CCC(N)=O)C(=O)N[C@@H](CCC(N)=O)C(=O)N[C@@H](CC(=O)O)C(=O)N[C@@H](Cc1ccccc1)C(=O)N[C@H](C(=O)N[C@@H](CC(N)=O)C(=O)N[C@@H](Cc1c[nH]c2ccccc12)C(=O)N[C@@H](CC(C)C)C(=O)N[C@@H](CC(C)C)C(=O)N[C@@H](C)C(=O)N[C@@H](CCC(N)=O)C(=O)N[C@@H](CCCCN)C(=O)N1CCC[C@H]1C(=O)N[C@@H](CO)C(=O)N[C@@H](CO)C(=O)NCC(=O)N[C@@H](C)C(=O)N1CCC[C@H]1C(=O)N1CCC[C@H]1C(=O)N1CCC[C@H]1C(=O)N[C@@H](CO)C(N)=O)C(C)C)", "note": "[AT586]", "cAMP agonism % Emax": 0, "cAMP antagonism": 25.1, "cAMP antagonism % inhib": 80, "cAMP antagonism pIC50": 7.6},
      {"binder": "EGTFISDYSIAMDKIK([AEEA-AEEA-γGlu-C18 diacid])QQDFVNWLLAQGPSSGAPPPS-NH2 (N-terminus assumed; SMILES CC[C@H](C)[C@H](NC(=O)[C@H](CO)NC(=O)[C@H](Cc1ccc(O)cc1)NC(=O)[C@H](CC(=O)O)NC(=O)[C@H](CO)NC(=O)[C@@H](NC(=O)[C@H](Cc1ccccc1)NC(=O)[C@@H](NC(=O)CNC(=O)[C@@H](N)CCC(=O)O)[C@@H](C)O)[C@@H](C)CC)C(=O)N[C@@H](C)C(=O)N[C@@H](CCSC)C(=O)N[C@@H](CC(=O)O)C(=O)N[C@@H](CCCCN)C(=O)N[C@H](C(=O)N[C@@H](CCCCNC(=O)COCCOCCNC(=O)COCCOCCNC(=O)CC[C@H](NC(=O)CCCCCCCCCCCCCCCCC(=O)O)C(=O)O)C(=O)N[C@@H](CCC(N)=O)C(=O)N[C@@H](CCC(N)=O)C(=O)N[C@@H](CC(=O)O)C(=O)N[C@@H](Cc1ccccc1)C(=O)N[C@H](C(=O)N[C@@H](CC(N)=O)C(=O)N[C@@H](Cc1c[nH]c2ccccc12)C(=O)N[C@@H](CC(C)C)C(=O)N[C@@H](CC(C)C)C(=O)N[C@@H](C)C(=O)N[C@@H](CCC(N)=O)C(=O)NCC(=O)N1CCC[C@H]1C(=O)N[C@@H](CO)C(=O)N[C@@H](CO)C(=O)NCC(=O)N[C@@H](C)C(=O)N1CCC[C@H]1C(=O)N1CCC[C@H]1C(=O)N1CCC[C@H]1C(=O)N[C@@H](CO)C(N)=O)C(C)C)[C@@H](C)CC)", "note": "[AT590]", "cAMP agonism % Emax": 0, "cAMP antagonism": 5.41, "cAMP antagonism % inhib": 93, "cAMP antagonism pIC50": 8.3}
    ]}
  ]
}
